The test addresses T1, purified, catalytically-active recombinant human p85α:p110α heterodimer (human, UniProt P27986 1-724; P42336 1-1068).
T1 construct: human PI3K regulatory subunit p85α; human PI3K catalytic subunit p110α; also called recombinant human PI3K; purified recombinant PI3K protein; source: bought: SignalChem (co-expression in Sf9 cells, >90% pure)
Nature of the test: pull-down; purified recombinant human PI3K (1 µg) with GST or GST-Ad9 E4-ORF1 on glutathione-sepharose beads; immunoblot with p85α and p110α antibodies. As to conditions: both partners purified. A general note: A western blot detects proteins with antibodies after separation by electrophoresis.

T1 sequence (P27986 whole entry, chain 1 of 2): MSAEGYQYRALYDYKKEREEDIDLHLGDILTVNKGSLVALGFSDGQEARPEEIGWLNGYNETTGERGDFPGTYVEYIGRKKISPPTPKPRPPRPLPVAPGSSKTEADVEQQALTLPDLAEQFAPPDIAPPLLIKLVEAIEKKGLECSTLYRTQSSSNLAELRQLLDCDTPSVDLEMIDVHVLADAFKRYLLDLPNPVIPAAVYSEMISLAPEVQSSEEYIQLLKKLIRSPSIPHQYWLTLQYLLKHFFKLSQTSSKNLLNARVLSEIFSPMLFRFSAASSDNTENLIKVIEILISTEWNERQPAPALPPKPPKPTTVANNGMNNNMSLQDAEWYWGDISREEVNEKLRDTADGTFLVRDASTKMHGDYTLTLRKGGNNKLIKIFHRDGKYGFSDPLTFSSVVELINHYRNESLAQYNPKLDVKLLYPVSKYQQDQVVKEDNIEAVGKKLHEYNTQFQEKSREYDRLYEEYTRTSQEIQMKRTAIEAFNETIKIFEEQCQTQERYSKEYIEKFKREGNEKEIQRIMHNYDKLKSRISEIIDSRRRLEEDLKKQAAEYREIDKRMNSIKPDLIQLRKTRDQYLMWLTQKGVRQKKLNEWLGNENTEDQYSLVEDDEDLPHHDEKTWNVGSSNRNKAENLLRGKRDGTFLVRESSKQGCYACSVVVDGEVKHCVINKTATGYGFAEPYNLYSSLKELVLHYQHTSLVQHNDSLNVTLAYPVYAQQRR
T1 sequence (P42336 whole entry, chain 2 of 2): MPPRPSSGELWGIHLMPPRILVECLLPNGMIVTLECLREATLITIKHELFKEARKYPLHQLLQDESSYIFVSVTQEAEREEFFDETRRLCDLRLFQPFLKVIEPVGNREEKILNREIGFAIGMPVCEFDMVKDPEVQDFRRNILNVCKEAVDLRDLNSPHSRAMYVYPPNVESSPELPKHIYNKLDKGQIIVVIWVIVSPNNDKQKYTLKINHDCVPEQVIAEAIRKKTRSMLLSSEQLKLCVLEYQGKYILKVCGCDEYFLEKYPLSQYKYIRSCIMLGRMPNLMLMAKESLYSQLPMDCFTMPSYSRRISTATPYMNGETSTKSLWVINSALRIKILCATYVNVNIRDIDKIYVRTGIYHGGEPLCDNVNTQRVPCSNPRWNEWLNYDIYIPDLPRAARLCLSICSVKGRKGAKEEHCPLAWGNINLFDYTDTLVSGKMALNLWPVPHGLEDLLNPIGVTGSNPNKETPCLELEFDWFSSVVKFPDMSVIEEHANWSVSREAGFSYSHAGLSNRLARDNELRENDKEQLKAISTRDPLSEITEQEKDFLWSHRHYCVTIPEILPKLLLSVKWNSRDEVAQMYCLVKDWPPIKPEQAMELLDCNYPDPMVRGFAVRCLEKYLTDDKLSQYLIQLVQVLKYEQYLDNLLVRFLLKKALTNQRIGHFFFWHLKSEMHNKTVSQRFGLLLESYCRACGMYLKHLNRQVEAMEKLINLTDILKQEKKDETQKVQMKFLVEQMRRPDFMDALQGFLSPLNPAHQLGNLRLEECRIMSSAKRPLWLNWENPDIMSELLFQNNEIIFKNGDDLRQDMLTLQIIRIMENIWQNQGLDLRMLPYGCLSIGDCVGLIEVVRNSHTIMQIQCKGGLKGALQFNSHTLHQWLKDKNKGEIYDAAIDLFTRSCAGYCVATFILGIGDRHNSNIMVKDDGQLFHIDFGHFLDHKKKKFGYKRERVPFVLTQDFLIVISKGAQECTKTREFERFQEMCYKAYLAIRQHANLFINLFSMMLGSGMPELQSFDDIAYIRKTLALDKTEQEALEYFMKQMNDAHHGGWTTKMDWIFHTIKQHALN

B1: GST-Ad9 E4-ORF1 fusion protein (natural protein)
chain: MAESLYAFIDSPGGIAPVQEGTSNRYTFFCPESFHIPPHGVVLLHLKVSVLVPTGYQGRFMALNDYHARDILTQSDVIFAGRRQELTVLLFNHTDRFLYVRKGHPVGTLLLERVIFPSVKIATLV
notes: Human adenovirus type 9 (Ad9) E4-ORF1 protein, wild type; also called GST-E4-ORF1; glutathione S-transferase (GST) fused to Ad9 E4-ORF1; source: bacterially expressed fusion protein (plasmid pGEX-2TK with wt E4-ORF1 cDNA), on glutathione-sepharose beads
As for B1, the binding result is “binds”.

The values above are taken from PMC4006922, “The Human Adenovirus E4-ORF1 Protein Subverts Discs Large 1 to Mediate Membrane Recruitment and Dysregulation of Phosphatidylinositol 3-Kinase” (PLoS Pathogens, 2014).
